In the Human Domainome abundance scans (Beltran et al. 2025):

B1: Zinc finger homeobox protein 4, residues 2086 to 2141; numbered along this chain, Q86UP3 (parent)
chain: RPRTRITDDQLKILRAYFDINNSPSEEQIQEMAEKSGLSQKVIKHWFRNTLFKERQ
B2: REST corepressor 3, residues 87 to 134; numbered along this chain, Q9P2K3 (parent)
chain: DEWTVEDKVLFEQAFSFHGKSFHRIQQMLPDKTIASLVKYYYSWKKTR

Variants of: B1
Assay: abundance fitness (aPCA) (normalised: wild type 0, dead -1); higher = more abundant; growth selection in yeast, the domain comes from the species named
Conditions: Homo sapiens

Abundance fitness: each site, then its substitutions
N49: H 0.141; A -0.023; K 0.123; E 0.079; L -0.172; Y -0.169; P -0.383; D 0.085; S -0.022; Q -0.155; R -0.009; I 0.019; T 0.025; W -0.12
K53: H 0.023; N -0.023; P -0.285; M -0.114; Y -0.064; F -0.284; T -0.042; Q -0.072; D -0.041; C -0.201; G -0.071; V -0.157; S 0.016; L 0.06; W -0.131; I 0.141
W46: V -0.221; K -0.737; N -0.762; Y 0.001; D -0.297; E -0.141; G -0.655; M -0.376; Q -0.483; I -0.331; R -0.516; F -0.237; T -0.203; P -0.698; S -0.406; A -0.313; L -0.239
Q56: K 0.295; W -0.492; M -0.12; T -0.07; S -0.502; A -0.646; R -0.024; G -0.439; V -0.568; H -0.363; C -0.802; L -0.214; N -0.083; E -0.77
R48: S -0.112; C -0.056; L -0.04; V -0.111; M -0.095; Q 0.056; H 0.049; Y -0.289; D -0.09; W -0.185; F -0.142; N 0.125; G -0.042; A -0.047; E -0.153; I -0.164; T 0.1; P -0.444
F52: R 0.184; W -0.174; L -0.005; G 0.035; H 0.018; C 0.13; N 0.134; K 0.068; M -0.131; D -0.085; Q 0.006; S -0.067; T 0.052; I 0.014; Y -0.02; A -0.029; V 0.062
L51: V 0.04; I -0.237; K -0.043; M 0.005; E -0.127; F -0.257; D -0.047; R -0.092; Y -0.098; G -0.134; H -0.071; W -0.163; S -0.1; N -0.12; T -0.065; Q 0.126; P -0.125; A 0.007
I43: K -1.19; D -0.876; F -0.607; C -0.367; M -0.541; L -0.195; P -1.09; S -0.994; Y -0.8; A -0.488; E -0.946; H -1.05; W -0.928; G -1.24; Q -1.02; N -1.02; V -0.073
K41: M -0.146; W -0.123; D 0.183; T -0.093; A -0.136; E -0.043; G -0.042; I -0.106; C 0.032; N -0.393; Q -0.235; P -0.307; S -0.141; L -0.174; V -0.124; H 0.033; F -0.02
Q40: S -0.115; W -0.11; N -0.217; T -0.188; R -0.062; Y -0.157; P -0.114; V -0.098
K44: Q -0.362; H -0.042; L -0.204; M -0.098; C -0.204; R -0.01; P -0.716; A 0.038; N -0.042; D 0.068; G 0.001; E -0.031; V -0.186; Y 0.049; T -0.017; W -0.312; S -0.069; I -0.25; F -0.023
V42: H -0.069; D 0.093; A 0.012; M -0.021; Y -0.065; E 0.031; L -0.085; C -0.002; R 0.086; Q -0.037; I -0.057; P -0.478; G -0.077; F 0.007; S -0.059; K -0.079; T -0.057; N -0.212; W -0.112
R55: A -0.025; W -0.215; T -0.158; N -0.255; L -0.091; I -0.632; C 0.016; V -0.204; D -0.163; Y -0.431; S -0.011; M -0.198; G -0.038; Q -0.028; E -0.059; F -0.125; P -0.118; H 0.256
F47: S -0.287; W -0.197; I -0.416; G -0.753; P -0.951; M -0.097; H -0.146; K -0.558; C -0.134; T -0.234; R -0.506; L -0.149; V -0.041; Y -0.096; E -0.517; N -0.398; D -0.708; Q -0.342
E54: V -0.057; K -0.169; R -0.1; Q -0.206; I -0.403; S -0.047; T -0.189; G -0.17; H -0.238; P -0.182; W -0.215; C -0.205; A -0.082; L -0.035; D -0.102; F -0.231; M -0.375; N -0.149
H45: K 0.038; T 0; G -0.029; M -0.059; Y -0.034; I -0.114; S -0.004; F -0.082; N -0.061; W 0.023; C -0.181; L -0.042; V -0.059; A -0.018; D 0.006; E 0.09; Q -0.006; R 0.08; P -0.207
T50: C -0.213; N 0.007; A -0.013; F -0.182; D 0.102; Q 0.035; E 0.051; K -0.016; L -0.061; R -0.032; W -0.109; G -0.079; M 0.065; S -0.053; I -0.119; Y -0.288

Variants of: B2
Assay: as above
Conditions: Homo sapiens

Abundance fitness: each site, then its substitutions
E6: D -0.466; F -0.542; A -0.388
T4: V -0.756; G -0.84; S -0.198; P -0.83; D -0.53; L -0.727; N -0.257; R -0.634
E2: A -0.797; C -0.116; L -0.593; N 0.294; R -0.107; S -0.441; Y -0.208; G 0.037; K 0.3; H -0.265; Q -0.486; V -0.859; T -0.302
D1: E -0.195; G 0.138
V5: Y 0.218; L -0.458; F -0.222; M -0.612; G -0.658; R -0.163; I -0.316; P -0.393; T -0.436; Q -0.154; S -0.3; A -0.137; E 0.388; K 0.208; C -0.478; D -0.104
W3: I -0.465; S -0.651; L -0.858; M -0.629; R -1.02; C -0.776; G -0.912; F -0.264; V -0.677
